# Measured values reported in the RNAGym collection of RNA variant scans (doi:10.1021/acssynbio.7b00057).
# B1: Pistol ribozyme (parent)
# chain: GGGUCGUUGUUCCAUAAUCGCGUGGAUAUGGCACGCAAGUUUCUACCGGGCACCGUAAAUGUCCGACUGGAGCCGUUCGGGCGGCUAUAAACAGACCUCAGGCCCGAAGCGUGGCGGCACCUGCCGCCGGUGGUAAAAAAGAUCGGAAGAGCACACGUCU
# Variants of: B1
# Assay: aptazyme ON/OFF ratio, guanine; higher = stronger switching; co-transcriptional cleavage with and without guanine
row,Variant,aptazyme ON/OFF ratio
1,U7A U8C G9C U10G U11A C12U C13G,1.01
2,U7A U8C G9C U10G U11A C12U C13U,1.03
3,U7A U8C G9C U10G C12G C13A,1.05
4,U7A U8C G9C U10G C12G C13G,1.11
5,U7A U8C G9C U10G C12G C13U,1.13
6,U7A U8C G9C U10C C13U,1.06
7,U7A U8C G9C U10C C13G,1.07
8,U7A U8C G9C U10C C13A,1.06
9,U7A U8C G9C U10G U11C C12G C13G,1.18
10,U7A U8C G9C U10G U11C C12G C13A,1.18
11,U7A U8C G9C U10G U11C C12G C13U,1.12
12,U7A U8C G9U U10A,1.4
13,U7A U8C G9U U10C,1.55
14,U7A U8C G9U U10C C12G C13A,1.13
15,U7A U8C G9U U10C C12G C13U,1.51
16,U7A U8C G9U U10C C12G C13G,1.33
17,U7A U8C G9U U10A U11C C13G,1.1
18,U7A U8C G9U U10A U11C C13A,1.08
19,U7A U8C G9U U10A U11C C13U,1.06
20,U7A U8C G9U,1.94
21,U7A U8C G9U U10C U11A C13A,1.1

row,Variant,aptazyme ON/OFF ratio
1,U7A U8C G9U U10C U11A C13U,1.12
2,U7A U8C G9U U10C U11A C13G,1.09
3,U7A U8C G9C U10C U11C C12U C13A,1.02
4,U7A U8C G9C U10C U11C C12U C13G,1.02
5,U7A U8C G9C U10C U11C C12U C13U,0.988
6,U7A U8C G9C U10A U11G,1.11
7,U7A U8C G9C U10A U11C,1.08
8,U7A U8C G9C U11C C12A,1.04
9,U7A U8C G9C U11C C12G,1.18
10,U7A U8C G9C U11C C12U,1.03
11,U7A U8C G9U U10A U11A C12U,1.12
12,U7A U8C G9U U10A U11A C12G,1.27
13,U7A U8C G9U U10A U11A C12A,1.28
14,U7A U8C G9C U11G C13A,1.05
15,U7A U8C G9C U11G C13G,1.13
16,U7A U8C G9C U11G C13U,1.1
17,U7A U8C G9C U10A U11C C12A C13G,1.16
18,U7A U8C G9C U10A U11C C12A C13A,1.15
19,U7A U8C G9C U10A U11C C12A C13U,1.14
20,U7A U8C G9C U10G C13A,1.1
21,U7A U8C G9C U10G C13U,1.14

row,Variant,aptazyme ON/OFF ratio
1,U7A U8C G9C U10G C13G,1.09
2,U7A U8C G9C U10A U11C C12G C13A,1.29
3,U7A U8C G9C U10A U11C C12G C13G,1.27
4,U7A U8C G9C U10A U11C C12G C13U,1.27
5,U7A U8C G9C U11G C12G,1.12
6,U7A U8C G9C U11G C12A,1.08
7,U7A U8C G9C U11G C12U,1.28
8,U7A U8C G9C U10G U11C C13U,1.1
9,U7A U8C G9C U10G U11C C13G,1.33
10,U7A U8C G9C U10G U11C C13A,1.21
11,U7A U8C G9C U10A U11G C12U C13A,1.13
12,U7A U8C G9C U10A U11G C12U C13U,1.14
13,U7A U8C G9C U10A U11G C12U C13G,1.14
14,U7A U8C G9C U10C U11A C12G C13G,1.08
15,U7A U8C G9C U10C U11A C12G C13U,1.1
16,U7A U8C G9C U10C U11A C12G C13A,1.03
17,U7A U8C G9C U10G U11G C12G C13A,1.08
18,U7A U8C G9C U10G U11G C12G C13G,1.13
19,U7A U8C G9C U10G U11G C12G C13U,1.05
20,U7A U8C G9C U10G U11G C12A C13G,1.07
21,U7A U8C G9C U10G U11G C12A C13A,1.15

row,Variant,aptazyme ON/OFF ratio
1,U7A U8C G9C U10G U11G C12A C13U,1.08
2,U7A U8C G9C U10C U11G C12G,1.08
3,U7A U8C G9C U10C U11G C12U,1.06
4,U7A U8C G9C U10C U11G C12A,1.13
5,U7A U8C G9U C12G C13U,1.37
6,U7A U8C G9U C12G C13A,1.23
7,U7A U8C G9U C12G C13G,1.16
8,U7A U8C G9U U10A U11A C12G C13A,1.15
9,U7A U8C G9U U10A U11A C12G C13G,1.2
10,U7A U8C G9U U10A U11A C12G C13U,1.34
11,U7A U8C G9C U10G U11G C12U,1.05
12,U7A U8C G9C U10G U11G C12A,1.24
13,U7A U8C G9C U10G U11G C12G,1.13
14,U7A U8C G9U U10A U11C C12G C13G,1.08
15,U7A U8C G9U U10A U11C C12G C13A,1.23
16,U7A U8C G9U U10A U11C C12G C13U,1.18
17,U7A U8C G9U U10C U11A C12U C13U,1.15
18,U7A U8C G9U U10C U11A C12U C13A,1.13
19,U7A U8C G9U U10C U11A C12U C13G,1.09
20,U7A U8C G9C U11G,1.09
